Non-standard residues stand in square brackets, D forms with d. Primed or numbered codes have the meaning given here. No end group written: not given here. Haic′ = not defined here; Acdn = not defined here
T1: vascular endothelial (VE) cadherin (human, UniProt P33151 48-784)
T1 sequence (looked up): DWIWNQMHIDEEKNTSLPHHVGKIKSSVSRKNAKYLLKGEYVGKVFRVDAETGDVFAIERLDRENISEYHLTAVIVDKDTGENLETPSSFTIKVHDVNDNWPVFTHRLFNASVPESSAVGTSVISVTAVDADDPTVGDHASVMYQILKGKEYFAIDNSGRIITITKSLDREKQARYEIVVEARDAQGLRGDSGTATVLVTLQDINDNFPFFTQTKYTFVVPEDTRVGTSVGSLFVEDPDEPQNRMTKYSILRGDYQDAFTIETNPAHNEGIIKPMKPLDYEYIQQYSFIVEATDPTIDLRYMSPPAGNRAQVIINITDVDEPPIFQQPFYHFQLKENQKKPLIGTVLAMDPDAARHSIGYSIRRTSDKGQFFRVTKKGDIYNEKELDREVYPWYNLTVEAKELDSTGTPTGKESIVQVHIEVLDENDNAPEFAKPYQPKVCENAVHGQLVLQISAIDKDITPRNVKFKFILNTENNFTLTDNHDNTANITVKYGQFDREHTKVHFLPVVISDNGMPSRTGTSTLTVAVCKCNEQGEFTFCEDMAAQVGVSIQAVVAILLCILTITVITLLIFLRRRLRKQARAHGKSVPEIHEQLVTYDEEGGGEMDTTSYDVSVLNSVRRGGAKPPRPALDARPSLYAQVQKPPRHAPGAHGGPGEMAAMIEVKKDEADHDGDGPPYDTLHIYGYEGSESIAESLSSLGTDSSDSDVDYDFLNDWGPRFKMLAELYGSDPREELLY

B1: Gly-His-Arg-Pro-Leu-Asp-Lys-Acdn-Ile-Ser-Gly-Gly-Gly-Tyr-Arg (peptide)
peptide: GHRPLDK[Acdn]ISGGGYR-NH2
modifications: reading uncertain; also: printed as Gly-His-Arg-Pro-Leu-Asp-Lys-Acdn-Ile-Ser-Gly-Gly-Gly-Tyr-Arg-NH2
B2: Gly-His-Arg-Pro-Leu-Asp-Lys-(1S,2R)Achc-Ile-Ser-Gly-Gly-Gly-Tyr-Arg (peptide)
peptide: GHRPLDK[(1S,2R)Achc]ISGGGYR
modifications: not fully specified; printed as Gly-His-Arg-Pro-Leu-Asp-Lys-(1S,2R)Achc-Ile-Ser-Gly-Gly-Gly-Tyr-Arg

Molecular target: T1, vascular endothelial (VE) cadherin
Assay: cell-based or functional assay

| Binder | Relative RhoA stimulation compared to unstimulated control |
| --- | --- |
| B1 | 1.3 fold of unstimulated control |
| GHRPLDK[Haic′]ISGGGYR [Gly-His-Arg-Pro-Leu-Asp-Lys-Haic-Ile-Ser-Gly-Gly-Gly-Tyr-Arg] | 1.3 fold of unstimulated control |
| B2 | 1.5 fold of unstimulated control |
| GHRPLDK[cis‑4‑Acha]ISGGGYR [Gly-His-Arg-Pro-Leu-Asp-Lys-(cis-4-Acha)-Ile-Ser-Gly-Gly-Gly-Tyr-Arg] | 1 fold of unstimulated control |

Reference: patent publication US20090286739A1 (FIBREX MEDICAL RESEARCH AND DEVELOPMENT, published 2009)
